Assay results from PMC3050594 (Nature structural & molecular biology, 2010).

Target: RSV F0 Fd glycoprotein (Human respiratory syncytial virus; …, UniProt P03420, stabilised, glycosylated)
Experiment: SEC

B1: palivizumab Fab (Fab, V domains shown)
VH: QVTLRESGPALVKPTQTLTLTCTFSGFSLSTSGMSVGWIRQPPGKALEWLADIWWDDKKDYNPSLKSRLTISKDTSKNQVVLKVTNMDPADTATYYCARSMITNWYFDVWGAGTTVTVSS
VL: DIQMTQSPSTLSASVGDRVTITCKCQLSVGYMHWYQQKPGKAPKLLIYDTSKLASGVPSRFSGSGSGTEFTLTISSLQPDDFATYYCFQGSGYPFTFGGGTKLEIK
B1 was tested, and the “stoichiometry N” value was 2.97 Fabs per trimer.
